Assay results reported in US20250281595A1.

Target: purified B/Washington/02/2019 HA full ectodomain (wild type) fused with TEV cleavage motif, trimeris (influenza B virus B/Washington/02/2019 (B/Victoria)) (UniProt P22092)
Experiment: BLI (Octet Red), […], Fab CR9114 at 20 ug/ml; […]

Substance: fAb CR9114
- OCTET CR9114 30° C. response: 0.48 nm
- OCTET Fab CR9114 response: 0.38 nm
